Laboratory results: patent publication US20220119518A1 (KUMHO HT, published 2022)
Residue numbers refer to the chain shown, from its start.

T1: Antigen CD66c (CEACAM6; Sino Biological, Inc.) (UniProt P40199 35-320)
T1 construct: Bought antigen, coated on the ELISA plate; construct not described; also called CECACAM6 (CD66c) antigen; CD66c antigen
T1 sequence (looked up): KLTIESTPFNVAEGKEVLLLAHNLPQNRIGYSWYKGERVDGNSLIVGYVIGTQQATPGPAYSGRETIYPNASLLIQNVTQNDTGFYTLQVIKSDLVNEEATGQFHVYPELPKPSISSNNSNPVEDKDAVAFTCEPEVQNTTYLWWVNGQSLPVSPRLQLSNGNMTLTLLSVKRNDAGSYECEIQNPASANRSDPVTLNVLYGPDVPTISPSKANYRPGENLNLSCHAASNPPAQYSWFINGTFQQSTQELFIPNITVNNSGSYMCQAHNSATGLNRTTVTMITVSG

T2: CEACAM1 antigen (Sino Biological, Inc.) (UniProt P13688 35-428)
T2 construct: Bought antigen, coated on the ELISA plate; construct not described; also called CEACAM1 (CD66a) antigen; CD66a
T2 sequence (looked up): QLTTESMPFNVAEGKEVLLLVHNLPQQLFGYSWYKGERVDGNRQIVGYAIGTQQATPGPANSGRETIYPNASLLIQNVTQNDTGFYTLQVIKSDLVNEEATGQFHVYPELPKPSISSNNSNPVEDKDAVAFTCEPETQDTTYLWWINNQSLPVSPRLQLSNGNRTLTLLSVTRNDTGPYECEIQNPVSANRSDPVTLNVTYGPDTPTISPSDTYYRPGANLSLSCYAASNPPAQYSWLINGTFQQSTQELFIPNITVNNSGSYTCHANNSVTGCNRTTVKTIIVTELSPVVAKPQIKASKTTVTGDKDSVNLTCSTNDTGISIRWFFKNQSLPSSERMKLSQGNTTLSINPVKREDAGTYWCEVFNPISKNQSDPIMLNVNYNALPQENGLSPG

B1: anti-CD66c chimeric antibody 8F5 (antibody, human IgG1, V domains shown)
VH: EVQLQQSGPELVKPGASMKISCKASGYSFTDYTMNWVKQSHGKNLEWIGLINPFHGGTVSNQRFKVKATLTVDVSSNTAYMELLSLTSDDSAVYYCVRGDPVRHYYALAYWGQGTSVTVSS
VL: DIQMTQSPASLSASVGETVTITCGASENVYGTLNWYQRKQGKSPQLLIYGATNLADGMSSRFSGSGSGRQYSLKISSLHPDDVATYYCQNVLSAPYTFGGGTKLEII
notes: also called chimeric 8F5; chi 8F5
B2: recombinant humanized anti-CD66c antibody Protein ID 3058 (Vk8 + VH11) (antibody, human IgG1, V domains shown)
VH: QVQLVQSGAEVKKPGASVKISCKASGYSFTDYTMHWVKQAPGQNLEWIGLINPFGGSTSYAQKFKGRVTMTRDTSTNTAYMELSRLRSDDTAVYYCVRGDPVRHYYALAYWGQGTLVTVSS
VL: DIQMTQSPSTLSASVGDRVTITCRASENVYGTLNWYQRKPGKAPKLLIYGATNLADGMPSRFSGSGSGTEYTLTISSLQPDDFATYYCQNVLSAPYTFGGGTKLEIK
notes: also called hu 3058; #86
B3: recombinant humanized anti-CD66c antibody Protein ID 3007 (Vk7 + VH6) (antibody, human IgG1, V domains shown)
VH: QVQLVQSGAEVKKPGASMKISCKASGYSFTDYTMNWVKQAPGQNLEWIGLINPFHGGTVSNQRFKVKATLTVDVSTNTAYMELSRLRSDDTAVYYCVRGDPVRHYYALAYWGQGTLVTVSS
VL: B2 VL with R24G, M58V
notes: also called hu 3007; #43
B4: recombinant humanized anti-CD66c antibody Protein ID 3043 (Vk8 + VH6) (antibody, V domains shown)
VH: B3 VH
VL: B2 VL
notes: also called hu 3043; #71
B5: recombinant humanized anti-CD66c antibody Protein ID 2938 (Vk5 + VH7) (antibody, human IgG1, V domains shown)
VH: B3 VH with K38R, N44G
VL: B2 VL with R24G, N34A, M58V, T69R
notes: also called hu 2938

These binders were tested against T1, Antigen CD66c (CEACAM6; Sino …) (assay: ELISA, CEACAM6 coated 100 ng/well, antibody at 370.37 ng/ml).
Description: (§1) Antigen CD66c (CEACAM6; Sino Biological, Inc.) and CEACAM1 antigen (Sino Biological, Inc.) were coated on a 96-well plate at a rate of 100 ng per well and then blocked. The primary antibody was diluted 3-fold from 10 ug/ml and bound at 37° C. for 1 hour. […] goat anti-Human Ig-HRP conjugate (Jackson ImmunoResearch) as a secondary antibody was diluted 1:10,000 and incubated at 37° C. for 30 minutes. The washing was carried out at three times between each step, and the TMB reaction was performed, stopped with 1N H₂SO₄ solution at the same amount of TMB solution (100 ul) and then OD value was measured at 450 nm.
(§2) As a result of the experiment, the binding affinities to CD66c antigen of the five kinds of recombinant humanized antibodies selected from among 96 kinds of recombinant humanized antibodies are shown in FIG. 4a, Table 12, FIG. 4b and Table 13. FIG. 4a and Table 12 show the binding capacity of the antibodies to CECACAM6 CD66c) antigen, and FIG. 4b and Table 13 are the results for the CEACAM1 (CD66a) antigen.

Row | Binder | OD 450 nm [OD 450 nm]
1 | B1 | 3.3
2 | B2 | 2.8
3 | B3 | 3.16
4 | B4 | 2.92
5 | B5 | 3.08

What follows are binders tested against T2, CEACAM1 antigen (Sino Biological, Inc.) (assay: ELISA, CEACAM1 coated 100 ng/well, antibody at 10000.00 ng/ml).
Description: as §1

Row | Binder | OD 450 nm [OD 450 nm]
6 | B1 | 1.21
7 | B2 | 0.42
8 | B3 | 1.01
9 | B4 | 0.91
10 | B5 | 0.32

What follows are binders tested against T1, Antigen CD66c (CEACAM6; Sino …) (assay: ELISA, CEACAM6 coated 100 ng/well, antibody at 1111.11 ng/ml).
Description: as §1, §2

Row | Binder | OD 450 nm [OD 450 nm]
11 | B1 | 3.3
12 | B2 | 3.19
13 | B3 | 3.23
14 | B4 | 2.74
15 | B5 | 3.16

What follows are binders tested against T2, CEACAM1 antigen (Sino Biological, Inc.) (assay: ELISA, CEACAM1 coated 100 ng/well, antibody at 123.46 ng/ml).
Description: as §1

Row | Binder | OD 450 nm [OD 450 nm]
16 | B1 | 0.95
17 | B2 | 0.07
18 | B3 | 0.82
19 | B4 | 0.7
20 | B5 | 0.1

What follows are binders tested against T2, CEACAM1 antigen (Sino Biological, Inc.) (assay: ELISA, CEACAM1 coated 100 ng/well, antibody at 370.37 ng/ml).
Description: as §1

Row | Binder | OD 450 nm [OD 450 nm]
21 | B1 | 1.13
22 | B2 | 0.12
23 | B3 | 0.92
24 | B4 | 0.8
25 | B5 | 0.14

What follows are binders tested against T2, CEACAM1 antigen (Sino Biological, Inc.) (assay: ELISA, CEACAM1 coated 100 ng/well, antibody at 0.51 ng/ml).
Description: as §1

Row | Binder | OD 450 nm [OD 450 nm]
26 | B1 | 0.1
27 | B2 | 0.04
28 | B3 | 0.11
29 | B4 | 0.1
30 | B5 | 0.05

These binders were tested against T2, CEACAM1 antigen (Sino Biological, Inc.) (assay: ELISA, CEACAM1 coated 100 ng/well, antibody at 4.57 ng/ml).
Description: as §1

Row | Binder | OD 450 nm [OD 450 nm]
31 | B1 | 0.28
32 | B2 | 0.05
33 | B3 | 0.27
34 | B4 | 0.27
35 | B5 | 0.05

What follows are binders tested against T1, Antigen CD66c (CEACAM6; Sino …) (assay: ELISA, CEACAM6 coated 100 ng/well, antibody at 3333.33 ng/ml).
Description: as §1, §2

Row | Binder | OD 450 nm [OD 450 nm]
36 | B1 | 3.41
37 | B2 | 3.18
38 | B3 | 3.24
39 | B4 | 2.95
40 | B5 | 3.27

The binders below were run against T2, CEACAM1 antigen (Sino Biological, Inc.) (assay: ELISA, CEACAM1 coated 100 ng/well, antibody at 0.17 ng/ml).
Description: as §1, §2

Row | Binder | OD 450 nm [OD 450 nm]
41 | B1 | 0.08
42 | B2 | 0.04
43 | B3 | 0.09
44 | B4 | 0.08
45 | B5 | 0.04

The binders below were run against T1, Antigen CD66c (CEACAM6; Sino …) (assay: ELISA, CEACAM6 coated 100 ng/well, antibody at 1.52 ng/ml).
Description: as §1, §2

Row | Binder | OD 450 nm [OD 450 nm]
46 | B1 | 0.53
47 | B2 | 0.53
48 | B3 | 0.79
49 | B4 | 0.7
50 | B5 | 0.48
